This is an account of results in US6528275B1, “Substrates and inhibitors of proteolytic enzymes” (Peptide Therapeutics Limited, priority 1996, dated 2003).

As a reminder, the Km is the substrate concentration at which the rate is half of its maximum.

Common to all, as to experiment: Der pI substrate assay with FRET peptides (fluorescence, Km, kcat/Km)
Type in all cases: biochemical, house dust mite
What all share (settings): other: purified Der pI; peptides SEQ ID Nos. 1-76; pH 8.25

Substrate in series [1]: CC(C)CC[C@H](NC(=O)[C@H](C)NC(=O)[C@H](Cc1ccc(-c2ccccc2)cc1)NC(=O)c1ccccc1N)C(=O)N1C[C@H](O)C[C@H]1C(=O)N[C@@H](Cc1ccc(O)c([N+](=O)[O-])c1)C(=O)N[C@@H](CC(=O)O)C(N)=O
The procedure:
(§1) Using the general techniques described above, the following compounds were prepared and assayed as potential substrates against Der pI purified as described above.
(§2) Each mixture of 20 compounds in the libraries of the apparatus described herein was screened at a concentration of 1.0 μM per compound in an assay against the cysteinyl protease Der pI.
(§3) Plate assays were carried out in 96 well plate format, using 0.1 ug of Der pI per 100 μL assay volume in each well and using 20 μM of the substrate. All assays were performed in Assay Buffer (AB; 50 mM potassium phosphate, pH 8.25 containing 1 mM ethylenediaminetetraacetic acid (EDTA) and 1 mM dithiothreitol (DTT). The Der pI enzyme is pre-activated by addition of DTT and this in incubated at room temperature for 5 min. prior to initiation of the assay. As an example for the screening methodology, each well contains a 5 μL of a 20 μM solution of the test compound in DMSO, 10 μL of a 200 μM aqueous solution of the substrate, 2, and 85 μL of Der pI in AB is added to initiate the reaction. Enzyme activity is monitored by fluorescence using 320 nm for excitation and 420 nm for the emission wavelengths using a Labsystems Fluroskan Ascent machine. Kinetic measurements were carried out using a Hitachi F-4500 Fluorescence Spectrophotometer.

Substrate in series [2]: CC(C)CC[C@H](NC(=O)[C@H](CCCCN)NC(=O)[C@@H](NC(=O)c1ccccc1N)C(C)C)C(=O)N[C@@H](CO)C(=O)N[C@@H](Cc1ccc(O)c([N+](=O)[O-])c1)C(=O)N[C@@H](CC(=O)O)C(N)=O
As to the method:
as §1, §2, §3

Substrate in series [3]: CC(C)CC[C@H](NC(=O)[C@H](C)NC(=O)[C@H](CCC(N)=O)NC(=O)c1ccccc1N)C(=O)N[C@@H](CO)C(=O)N[C@@H](Cc1ccc(O)c([N+](=O)[O-])c1)C(=O)N[C@@H](CC(=O)O)C(N)=O
As to the method: as §1, §2, §3

Substrate in series [4]: CC(C)CC[C@H](NC(=O)[C@H](C)NC(=O)[C@H](Cc1ccc(-c2ccccc2)cc1)NC(=O)c1ccccc1N)C(=O)N[C@@H](Cc1ccc(O)cc1)C(=O)N[C@@H](Cc1ccc(O)c([N+](=O)[O-])c1)C(=O)N[C@@H](CC(=O)O)C(N)=O
The procedure:
as §1, §2, §3

Substrate in series [5]: CC(C)CC[C@H](NC(=O)[C@H](C)NC(=O)[C@H](Cc1ccc(-c2ccccc2)cc1)NC(=O)c1ccccc1N)C(=O)N[C@H](C(=O)N[C@@H](Cc1ccc(O)c([N+](=O)[O-])c1)C(=O)N[C@@H](CC(=O)O)C(N)=O)C(C)(C)C
As to the method:
as §1, §2, §3

Substrate in series [6]: CC(C)[C@H](NC(=O)c1ccccc1N)C(=O)N[C@@H](C)C(=O)N[C@H](C(=O)N[C@@H](CO)C(=O)N[C@@H](Cc1ccc(O)c([N+](=O)[O-])c1)C(=O)N[C@@H](CC(=O)O)C(N)=O)[C@@H](C)O
As to the method: as §1, §2, §3

Substrate in series [7]: CC(C)CC[C@H](NC(=O)[C@H](C)NC(=O)[C@H](Cc1ccc(-c2ccccc2)cc1)NC(=O)c1ccccc1N)C(=O)N[C@@H](CC1CCCCC1)C(=O)N[C@@H](Cc1ccc(O)c([N+](=O)[O-])c1)C(=O)N[C@@H](CC(=O)O)C(N)=O
The procedure:
as §1, §2, §3

Substrate in series [8]: CC(C)CC[C@H](NC(=O)[C@H](C)NC(=O)[C@H](CC(C)C)NC(=O)c1ccccc1N)C(=O)N[C@@H](CO)C(=O)N[C@@H](Cc1ccc(O)c([N+](=O)[O-])c1)C(=O)N[C@@H](CC(=O)O)C(N)=O
The procedure:
as §1, §2, §3

Substrate in series [9]: CC(C)[C@H](NC(=O)c1ccccc1N)C(=O)N[C@@H](C)C(=O)N[C@@H](CCCCN)C(=O)N[C@@H](CO)C(=O)N[C@@H](Cc1ccc(O)c([N+](=O)[O-])c1)C(=O)N[C@@H](CC(=O)O)C(N)=O
As to the method:
as §1, §2, §3

Substrate in series [10]: CC(C)CC[C@H](NC(=O)[C@H](C)NC(=O)[C@H](Cc1ccc(-c2ccccc2)cc1)NC(=O)c1ccccc1N)C(=O)N[C@@H](Cc1cccnc1)C(=O)N[C@@H](Cc1ccc(O)c([N+](=O)[O-])c1)C(=O)N[C@@H](CC(=O)O)C(N)=O
The procedure:
as §1, §2, §3

Substrate in series [11]: CC(C)CC[C@H](NC(=O)[C@H](CC[S+](C)[O-])NC(=O)[C@@H](NC(=O)c1ccccc1N)C(C)C)C(=O)N[C@@H](CO)C(=O)N[C@@H](Cc1ccc(O)c([N+](=O)[O-])c1)C(=O)N[C@@H](CC(=O)O)C(N)=O
The procedure:
as §1, §2, §3

Substrate in series [12]: CC(C)CC[C@H](NC(=O)[C@H](C)NC(=O)[C@H](Cc1ccc(-c2ccccc2)cc1)NC(=O)c1ccccc1N)C(=O)N[C@@H](CC(C)C)C(=O)N[C@@H](Cc1ccc(O)c([N+](=O)[O-])c1)C(=O)N[C@@H](CC(=O)O)C(N)=O
The procedure: as §1, §2, §3

B1: Der pI (Dermatophagoides pteronyssinus) (protein)
chain: TNACSINGNAPAEIDLRQMRTVTPIRMQGGCGSCWAFSGVAATESAYLAYRNQSLDLAEQELVDCASQHGCHGDTIPRGIEYIQHNGVVQESYYRYVAREQSCRRPNAQRFGISNYCQIYPPNVNKIREALAQTHSAIAVIIGIKDLDAFRHYDGRTIIQRDNGYQPNYHAVNIVGYSNAQGVDYWIVRNSWDTNWGDNGYGYFAANIDLMMIEEYPYVVIL
notes: tissue SmithKline-Beecham, U.K (crude mite extract); host or cells: crude house dust mite extract
For the protein B1, the Km in [1] was 4 µM; in series [2], 35 µM; in [3] it was 12 µM; in series [4], 3 µM; in series [5], 4 µM; in [6] it was 6 µM. The Km is 2.5 µM in [7]; 18 µM in series [8]; 14 µM in series [9]; 4 µM in series [10]; 35 µM in series [11]; 3.7 µM in series [12].
